Test results reported in patent US20230303666A1 (published 2023).

Target: SARS-CoV-2 S on pseudotyped lentivirus (pCMV-SARS2deltaC-gp41) (SARS-CoV-2, UniProt P0DTC2 14-1246)
Experiment: cell-based or functional assay

Row | Binder | IC50 of neutralization of pseudotyped lentiviral infection | IC50 of pseudovirus neutralization | pseudovirus neutralization potency, fold increase against monomeric SR6v15
1 | SR6c3 (VHH) VHH: EVQLVESGGGLVQAGDSLRLSCAASGDCHVLWRMGWFRQAPGKEREFVAAISLDGQFTNYADSVRGRFSISADSAKNTVYLQMNSLKPEDTAVYYCAALPFLDYWGQGTQVTVSS | 62.7 nM | – | –
2 | SR6v15.d (VHH) EVQLVESGGGLVQAGDSLRLSCAASGDSYILWRMGWFRQAPGKEREFVAAISLDGQFTNYADSVRGRFSISADSAKYTVYLQMNSLKPEDTAVYYCAALPFLDYWGQGTQVTVSSEVQLVESGGGLVQAGDSLRLSCAASGDSYILWRMGWFRQAPGKEREFVAAISLDGQFTNYADSVRGRFSISADSAKYTVYLQMNSLKPEDTAVYYCAALPFLDYWGQGTQVTVSS | – | 0.329 nM | > 10 fold
